Measured values from patent US6372467B1, “P54s6k and p85s6k genes, proteins, primers, probes, and detection methods” (President and Fellows of Harvard College, priority 1998, dated 2002).

How the values were obtained:
[1] = system: p54^S6K; experiment: In vitro kinase assay (GST-S6 substrate) of 167 anti-p54^S6K antiserum immunoprecipitates from mitogen-treated 293 cells; format: cell-based, human; settings: EGF 250 ng/ml or insulin 200 nM for 20 minutes
Description: (§1) 293 cells were treated with serum (10%), EGF (250 ng/ml), or insulin (200 nM) for 20 minutes, lysed, and the lysates were immunoprecipitated with 167 anti-p54^S6K antiserum or with N2 anti-p70^S6k antiserum. Phosphorimager™ counts from an in vitro kinase assay of the immunoprecipitates using GST-S6 as the substrate are shown.
(§2) Antibodies were made using standard techniques, such as those described in Harlow and Lane (Antibodies: A Laboratory Manual, Cold Spring Harbor Press, New York. 1988). The cells were starved and then stimulated with serum, EGF, or insulin, or left unstimulated. Rapamycin or wortmannin were also incubated with the cells prior to serum stimulation when indicated.
(§3) Lysates from 293 cells transfected with HA-p54^S6K or HA-p54^S6K KR were immunoblotted with anti-HA Ab. (FIG. 3B bottom left panel). […] This is of interest since a majority of the p70^S6k phosphorylation sites are conserved in p54^S6K (FIG. 1B). […] Finally, the activation kinetics of p54^S6K and p70^S6k were compared.

[2] = system: p70^S6k; experiment: In vitro kinase assay (GST-S6 substrate) of N2 anti-p70^S6k antiserum immunoprecipitates from mitogen-treated 293 cells; format: cell-based, human; settings: EGF 250 ng/ml or insulin 200 nM for 20 minutes
Description: as §1, §2, §3

Substance | p54^S6K kinase activity (stimulation by mitogen) [1] | p70^S6k kinase activity (activation by mitogen) [2]
EGF | to a small degree | only mildly activated
insulin | stimulated | strongly activated
